As usually defined, the Km is the concentration of substrate that gives half-maximal velocity. What is called kcat is the number of substrate molecules converted per active site and unit of time at saturation.

This passage reports Km and kcat results from paper PMC7072297, “Structural Determinants Responsible for the Preferential Insertion of Ribonucleotides by Bacterial NHEJ PolDom” (Biomolecules, 2020).

Substrate in this data set: Nc1nc2c(ncn2[C@@H]2O[C@H](COP(=O)(O)OP(=O)(O)OP(=O)(O)O)[C@@H](O)[C@H]2O)c(=O)[nH]1
Briefly: steady-state primer extension, denaturing PAGE. The format is biochemical, Pseudomonas aeruginosa. Particulars: 200 nM primer/template DNA (Cy5P/T29(A)), misinsertion opposite template dA, 5 mM MnCl2, pH 7.5, 30 °C. The source says:
steady-state primer extension, denaturing PAGE on Pa-PolDom

B1: Pa-PolDom (Pseudomonas aeruginosa PAO1) (protein)
chain: GARKASAGASRAATAGVRISHPQRLIDPSIQASKLELAEFHARYADLLLRDLRERPVSLVRGPDGIGGELFFQKHAARLKIPGIVQLDPALDPGHPPLLQIRSAEALVGAVQMGSIEFHTWNASLANLERPDRFVLDLDPDPALPWKRMLEATQLSLTLLDELGLRAFLKTSGGKGMHLLVPLERRHGWDEVKDFAQAISQHLARLMPERFSAVSGPRNRVGKIFVDYLRNSRGASTVAAYSVRAREGLPVSVPVFREELDSLQGANQWNLRSLPQRLDELAGDDPWADYAGTRQRISAAMRRQLGRG
notes: polymerization domain, residues 533-840; Arg532 codon replaced by start Met; E. coli BL21(DE3)
As to B1, the Km was 1211 ± 90 nM and the kcat was found to be 0.92 ± 0.02 s⁻¹.
